Measurements from the nanobody polyreactivity screen of Harvey et al. (2022).

test: yeast display, Sf9 membrane polyspecificity reagent, FACS + sequencing; frameworks hold sequencing errors
Outline: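 Using colony PCR, genes from sorted yeast display clones were amplified, then sequenced on MiSeq at 2 × 250 and filtered by CDR length. The clones had been stained with 10% biotinylated, detergent-solubilized Sf9 membrane reagent for 1 hour at 4 °C and sorted by FACS into low and high (top ~1%) gates on anti-HA and streptavidin fluorescence. Polyreactivity labels come from the gate of origin.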

Sequence	polyreactivity (PSR sort gate)
QVQLVESGGRLFQAGGSLRLSCPASGFTFVYNAMGWYRQAPGKERELVATISSGGGRTYYADSVKGRFTISGDNAKNTVSLQKYSQKPEDTAVYYCATVRRTSSGERHEFWGQGTQVTVSS	low polyreactivity
QVQLVESGGGLVQAGGSLRLSCAGSGSIFPFYVMGWYRQAPGKEREFVATISSRGGSTYYADSVKGRFTISRDNAKNTVYLQMNSLKPEDTAVYYCAAGWYRTDWGQRLHTYYYWGQGTQVTVSS	high polyreactivity
QVQLVESGGGLVQAGGSLRLSCAASGRTFAINARGWYRQAPGKERELVAAITTSGGGTYYADSVKGRFTISRDNAKNTVYLQMNSLKPEDTAVYYCAAGTSYYTYRFYAWDYDYWGQGTQVTVSS	low polyreactivity
QVQLVESGGGLVQAGGSLRLSCAASGSTFDYYDMGWYRQAPGKERELVATITSGGSTNYADSVKGRFTISRDNAKNTVYLQMNSLKPEDTAVYYCAADIGGDGEGYDYWGQGTQVTVSS	low polyreactivity
QVQLVESGGGLVQAGGSLRISCAASGFIFRYNAMGWYRQAPGKERELVAAINSGDSTNYADSVKGRFTISRDNAKNTVYLQMNSLKPEDTAVYYYWGQGTQVTVSS	low polyreactivity
QVQLVESGGGLVQAGGSLRLSCAASGRIFWYYAMGWYRQAPGKERELVATISYGGGNTYYADSVKGRFTISRDNAKNTVYLQMNSLKPEDTAVYYCARVPYAYLPYKPFQQYSYDYWGQGTQVTVSS	high polyreactivity
QVQLVESGGGLVQAGGSLRLSCAASGRIFRSYAMGWYRQAPGKERELVAAISSGVITYYADSVKGRFTISRDNEKNTVYLQMNSLKPEDTAVYYCNARWRFLYDYWGQGTQVTVSS	high polyreactivity
QVQLVESGGGLVQAGGSLRLSCAASGRIFDINAMGWYRQAPGKESELVAAISRGGSTYYADSVKGRFTISRDNAKHTVDLQMNSLKPQDTAVYYCNKYRYRGSTVFDGYDYWGQGTQVTVSS	high polyreactivity
QVQIVESGGGLVQAGGSLRLSCAASGSTFVENAMGWYRPAPGKERELVAAISSSGDSTFYADSVKGRFTISRDNAKNNVYLQMNSLKPEDTAVYYCAADRRINYDGLDMDYWGQGTQVTVSS	low polyreactivity
QVQLVESGGGLVQAGGSLRLSCAASGIIFFIYAMGWYRQAPGKERELVARISWRGGSTSYADSVKGRFTISRDNAKNTVYLQMNSLKPEDTAVYYCAAGVYSFRYDSWGQGTQVTVSS	low polyreactivity
QVQLVESGGGLVQAGGNLRLSCAASGFIFTRYAMGWYRPAPGKERELVAAISTSGDRTYYADSVKGRFTISRDNAKNTVYVQMHSLKPEDTAVYFCAVVRRRSVGRYVYWGQGTQVTVSS	high polyreactivity
QVQLVESGGGLFKAGGSLRLSCAASGSTLPGYAMGWYRQAPGKERELVAAITGSGGRTYYADSVKGRFTISRDNAKYTVYLQMNSLKPEDTAVYYCGRGQRVYRSQGDYWGQGSQVTVSS	high polyreactivity
QVQLVESGGGLVQAGGSLRLSCAASGSIINRYAMGWYRQARGKERELVAAITQSGGRTYYADSVKGRFTISRDNAKNTVYLQMNSLKPEDTAVYYCAKAGWPGSYIYYRFRVGYDSWGQGTQVTVSS	high polyreactivity
QVQLVESGGGLVQAGGSLRLICAASGLTFRPNSMGWFRQAPGKERELVAAITWLGGRTYYADSVKGRFTISRDNSKNTVYLQMNSLKPEDTEVYYCSADSPYRGRQCPLNYGGDYWGQGTQVTVSS	high polyreactivity
QVQLVESGGGLVQAGGSLRLSCAASGSTFKKNAMGWYRQAPGKERELVAAISKRGGRTYYADSVKGRFTISRDNAKNTVYLQMNSLKPEDTAVYYCNAGQQHFDEEEYDYWGQGTQVTVSS	high polyreactivity
QVQLVESGGGLVQAGGRLRLSCAASGRIFYFYDMGWYRQAPGTERELGAAISRGGSTNYADSVKGRFTISRDNAKNTVYLQMNRLKPQDTAVYYCNAGLYDLRDIAGYSDYDYWGQGTQVTVSS	low polyreactivity
QVQLVESGGGLVQAGGSLRLSCAASGFTFRYYAMGWYRQAPGKERELVAAISKSGGSTYYADSVKGRFTISRDNAKNTVYLQMNSLKPEDTAVYYCAARNWFSYYQIMDYWGQGTQVTVSS	high polyreactivity
QVQLVESGGGLVQAGGSLRLSCAASGRTFIYYAMGWYRQAPGKEREFVAIISWNGTSTNYADSVKGRFTISRDNAKNTVYLQMNSLKPEDTAVYYCAASFWTDYYRYDYWGQGTQVTVSS	low polyreactivity
QVQLVESGGGLVQAGGSLRLSCAASGRIFYYNAMGWYRPAPGKERELVAAITGDGTTDYADSVKGRFTISRDNAKNTVYLQMNSLKPEDTAVYYCNAPFRYVPPEGSGPYDYWGQGTQVTVSS	low polyreactivity
QVQLVESGGGLVQAGGSLRLSCAASGGTFGQYAMGWYRLAPGKERELVAAITSSGGRKYYADSVKGRFTISRDNAKNTVYLQMNSLKPEDTAVYYCAADVQSRYVGEGDYWGQGTQVTVSS	high polyreactivity
QVQLVESGGGLVQAGGSLRLSCAASGRTVWGYGMGWYRQAPGKERELVATISSGGSTYYADSVKGRFTISRDNAKNTVYLQMNSLKPEDTAVYYCAARPPRTYWRYQSDYWGLGTQVTVSS	high polyreactivity
QVQLVESGGGLVEAGGRLRLSCAAYGRIFYYNGMGCYRQAPGKERELVAAITSGGSTNYADSEKGRFTISRDNAKNNVYLQMKSVKPEDTAVSYCAADYYYYVAGVHFDYWGQGTQVTVSS	low polyreactivity

Sequence	polyreactivity (PSR sort gate)
QVQLVESGGGLVQAGGSLRLSCAASGRIIRYYAMGWYRQAPGKETELVAITSSGGRTYYADSVKGRFTISRDNAKNTVYLQMNSLKPEDTAVYYCAVDAHWPGRGERFIRLDYWGQGTQVSVSS	low polyreactivity
QVQLVESGGGLVQAGGSLRLSCAASGIIFGLNDMGWYRQAPGKERELVADITYSGGSTYYADSVKGRFTISRDNAKNTVYLQMNSLKPEDTAVYYCAADEVSFWGYIYDYWGQGTQVTVSS	high polyreactivity
HVQLVESGGGLVQAGGSLRLSCAASGRIFGPNAMGWYRQAPGKERELVAAISSGTGSRTYYADSVKGRFTISRDNAKKTVSLQMISLKPEDTAVYYCAVYSQQVYRWKYRFDYWGQGTQVTVSS	low polyreactivity
QVQLVESGGVLVQAGGSLRLSCAASGITFNSYAMGWYRQAPGKERELVASISWIGGSTYYADSVKGRFTISRDNAKNTVYFQMNSLKPEDTAVYYCAVDKGTDYYYDVDYWGQGTQVTVSS	low polyreactivity
QVQLVESGGGLVQAGGSLLLSCAASRSTFDTNAMGWYSQAPGKERELVAAIRWSTGNTYYADSVKGRFTISRDNAKKTDYLQKNSLKPEDTAVYYCAAYTGKHYKEGYWGQVTQVTVSS	low polyreactivity
QVQLVESGGGLVQAGGSLRLSCAASGRIFRLYAMGWYRQAPGKERELVAAIRSATRTTYADSVKGRFTISRDNAKNTVYLQMNSLKPEDTAFYYCAARLWRYSDVSKYYSWGQGTQVTVSS	high polyreactivity
QVQLVESGGGLVQAGGSLRLSCAASGSTFEYYAMGWYRQAPGKERELVAAISTSGGSTYYADSVKGRFTISRDNAKNTVYLQMNSLKPEDTAVYYCNRGRRYSHKYDYWGQGTQVTVSS	high polyreactivity
QVQLVESGGGLVQAGGSLRLSCAASGRIFVLYAMGWYRQAPGKERELVAAITSDGSSTYYADSVKGRFTISRDNAKNTVYLQMISLKPEDNAVYYCNKVQGWARYRSGKDMGYWGQGTQVTVSS	low polyreactivity
QVQLVESGGGLVQAGGSLRLSCAASGIIFYWNAMGWYRQAPGQEREFDASISGSGGSTYADSVKGRFTISRDNAMNTVYFQMKSLKPEDTAVYYCAVLYWRPGYDYLGQGTQVTVSS	high polyreactivity
QLQLVESGGGLVQAGGSLRLSCAASGLTFSYYAMGWYRQAPGKETELVSAISRGGTTNYADSVKGRFTISRDNAKNTVYLQMNSLKPEDTAVYYCAASYFRRGFYSIYEYDYWGQGTQVTVSS	low polyreactivity
QVQLVESGGGLVQAGGSLRLICAASGSTFYYYTRVWYRQAPGKERELVAAISYGGSSTYYADSVKGRFTISRDNAKNSVYLQMNSLKPEDTAVYYCAAEYDWSYWLSYDYWGQGTLVTVSS	low polyreactivity
QVQLVESGGGLVQAGGSLRLSCAASGSTFLVYAMGWYRQAPGKERELVAAITRRSTSTFYADSVKGRFTISRVNAKNTVYLQMNSLKPEDTAVYYWAADTRFISRENYWGQGTQVTVSS	high polyreactivity
QVQLVESGGGLVQAGGSLRLSCAASGSIFGLYAMGWYRQAPGKEREVFADITIGGSTYYADSVKGRFTISRDNAKNTVYLQMNSLKPEDTAVYYCASRPGSWYPSVPSYNYWGQGTQVTVSS	low polyreactivity
QLQLEESGGGLVQAGGSLRLSCAAYGNILGYNAMGWYRQAPGKERELVAAISDNADSTYYADSVKGRFTISRDNAKNTVYLQMNSLKPEDPAVYYCAADWVLRTWLFWYTKYDYWGQGTQVTVSS	low polyreactivity
QVQLVESGGGLVQAGGILRLSCAASGRTFGIYVMGWYRQAPGKERELVAAIRSGGTTNYADTVKGRFTISRDNAKNTVYLKMNSLKPEDTAVYYCAASSRRSWTYDYWGQGTQVTVSS	high polyreactivity
QVQLVDSGGVLVQAGGSLRLICAASGNTFAYYTLGWYRQAPGKEMELVAAIDYSGGSTYYADSVKGRFTISRDNAKNTVYLQMNSLKPEDTAVYYCASDYRWHFSESLGWFYEYGYWGQGTQVTVSS	low polyreactivity
QVQLVESGGGLVQAGGSLRLSCAASGLTFPFYVMGWYRQAPGKERELVAAISASGASTYYADSVKGRFTISRDNAKNTVYLQMNSLKPEDTAVYYCAALGYGFSYRYDYWGQGTQVTVSS	high polyreactivity
QVQLVESGGGLVQAGGSLRLSCAASGRTFRQYAMGWYRQSPGKERELVATISGGGGNTYYADSVKGSFTISRDNAKNTVYLQMNSLKQEDTAVYYCAARRRDRPVRGYDYWGQGTQVTVSS	high polyreactivity
QVQLVESGGGLVQAGGSLRLSCAASGFTFTYYAMGWYRQAPGKERELVAAITKSGGSTYYADSVKGRFTISRDNAKNTVYLQMNSLKPEDTAVYYCAADTRYGRERYYWGQGTQVTVSS	high polyreactivity
QVQLVESGGGLVQAGGSLRLSCASSGSTFYNNAMGWYRPAPGKDRELVAAISSGGGTYYADSVKGRFTISRDNAKNTVYLQMNSLKPEDTAVYYCAADFANTTHWGRIKRYDYWGQGTQVTVSS	low polyreactivity
QVQLVESGGGLVQAGGSLRLSCAASGRIFWDYALGWYRQAPGKERELVAVITFSGDSTYYADSVKGRFTISRDNAKNTVYVQMNSLKPEDTAVYYCAAARAIRQFWYVATFEYWGQGTQVTVSS	low polyreactivity
